Literature values, collected in article PMC12513479.

Columns and labels:
IFNAR2 (Homo sapiens) = IFNAR2 (Homo sapiens) (UniProt P48551)
IFNAR1 (Homo sapiens) = IFNAR1 (Homo sapiens) (UniProt P17181)
Sequence of UniProt P17181 (P17181 28-436): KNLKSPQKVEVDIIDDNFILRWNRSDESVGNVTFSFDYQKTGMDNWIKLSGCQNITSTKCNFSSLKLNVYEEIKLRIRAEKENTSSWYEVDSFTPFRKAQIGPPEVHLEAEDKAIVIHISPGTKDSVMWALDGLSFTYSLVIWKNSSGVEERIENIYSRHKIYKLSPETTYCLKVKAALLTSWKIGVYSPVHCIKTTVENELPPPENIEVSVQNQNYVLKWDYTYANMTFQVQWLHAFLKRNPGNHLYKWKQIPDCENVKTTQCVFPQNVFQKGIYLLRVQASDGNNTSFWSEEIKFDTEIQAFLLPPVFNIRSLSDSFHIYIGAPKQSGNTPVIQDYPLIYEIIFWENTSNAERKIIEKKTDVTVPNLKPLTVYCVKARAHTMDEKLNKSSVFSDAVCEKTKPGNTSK

Sequence of UniProt P48551 (P48551 27-243): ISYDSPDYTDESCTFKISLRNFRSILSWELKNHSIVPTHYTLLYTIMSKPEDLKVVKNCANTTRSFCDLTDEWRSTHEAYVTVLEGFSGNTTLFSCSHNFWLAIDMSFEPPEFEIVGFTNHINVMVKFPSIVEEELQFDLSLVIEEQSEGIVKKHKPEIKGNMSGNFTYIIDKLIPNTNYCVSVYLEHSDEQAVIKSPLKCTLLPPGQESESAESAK

Kd (IFNAR2 (Homo sapiens)): 0.1 nM | Kd (IFNAR1 (Homo sapiens)): 100 nM
Substance: IFN-β (from UniProt P01574)
